Reference: patent US20220017630A1 (JIANGSU SIMCERE PHARMACEUTICAL, published 2022)

B1: TNFR2 antibody #309 (antibody, V domains shown)
VH: EVQLQESGAELVKPGASVKLSCKASGYTFTSYWIHWVKLRPGQGFEWIGEINPNNGGTDYNEKFKRKATLTVDKSSSTAYMELSSLTSEDSAIYYCTIDSMITTTWFAYWGQGTTVTVSS
VL: EIVMTQSQKLMSTVVGDRVSVTCKASQNVGTNVAWFQQKPGQSPKALINSASYRYSGVPDRFTGSGSGTDFTLTISSVQSEDLAEYFCQQYNSYPFTFGSGTKLEIK
B2: TNFR2 antibody #125 (antibody, V domains shown)
VH: EVQLQESGGGLVQPGGSLNLSCAASGFAFSIYDLSWVRQTPEKRLEWVAYINNGGISTYYSDTVKGRFTISRDNAKNTLYLQMSSLKSEDTAMYYCVRGPFYGSANYFDYWGQGTTVTVSS
VL: DIQMTQSPASLSLSVGETVTITCRASENIYSNLAWYQQKQGKSPQLLVYDATKLAEGVPSRFSGSESGTQYSLKINSLQSEDFGTYYCQHFWVTPWTFGGGTKLEIK
B3: TNFR2 antibody #001 (antibody, V domains shown)
VH: EVQLQESGGGLVQPGGSLNLSCAASGFAFSTYDLSWVRQTPEKRLEWVAYINNGGISTYYSDTVKGRFTISRDNAKNTLYLQMSSLKSEDTAMYYCVRGPFYGSANYFDYWGQGTTVTVSS
VL: EIVMTQSPASLSLSVGETVTITCRTSESIYSNLPWYQQKQGKSPQLLVYDATKLAEGVPSRFSGSESGTQYSLKINSLQSEDFGTYYCQHFWVTPWTFGGGTKLEIK
notes: also called antibody #1
B4: TNFR2 antibody #224 (antibody, V domains shown)
VH: EVQLQESGPEIVKPGASVKLSCTASGFNNKDIYMHWVKQRPEQGLEWIGRIDPATGNTKHDPKFQDKATLSSDTSSNTAYLQFSSLTSEDTAVYYCAHSPYGDFGAMDYWGQGTTVTVSS
VL: DIQMTQSPAIMSASLGERVTMTCTASSSVSSNYLHWYQQKPGSSPKLWIYSTSNLPSGVPARFSGSGSGTSYSLTISSMEAEDAATYYCHQYHRSPWTFGGGTKLEIK
B5: TNFR2 antibody #352 (antibody, V domains shown)
VH: EVQLQESGPGLVAPSQSLSITCTVSGFSLTSYGVHWVRQPPGKGLEWLVVIWSDGGTTYNSALKSRLSISKDNSKSQVFLKMNSLQTDDTAMYYCARHDDDGYYAMDYWGQGTTVTVSS
VL: DIVLTQSPSLMSASPGEKVTMTCSASSSVGYMYWYQQKPRSSPKPWIYLTSNLASGVPARFSGSGSGTSYSLTISSMEVEDAATYYCQQWSSDPFTFGSGTKLEIK
B6: TNFR2 antibody #395 (antibody, V domains shown)
VH: EVQLQESGPVLVQPSQSLSITCTVSGFSLTSYSVHWVRQSPGKGLEWLGVIWSDGGTDYSAAFISRLSISKDNSKSQVFFKMNSLQADDTAIYYCARNDDGGDYAMDYWGQGTTVTVSS
VL: EIVLTQSPALMSASPGEKVTMTCSASSSVSYMYWYQQKPRSSPKPWIYLTSNLASGVPARFSGSGSGTSYSLTISSMEAEDAATYYCQQWSSNPLTFGAGTKLEIK

What was measured:
[1] = molecular target: T1, human TNFR2 on the cell surface (CHO-TNFR2 cells; human Treg cells) (human, UniProt P20333 23-461); experiment: flow cytometry, blocking of TNFα-biotin on CHO-TNFR2 cells
T1 construct: whole, on cells; The assay field of each row says which cells; also called TNFR2-CHO cell; TNFR2 on Treg cells
T1 sequence (looked up): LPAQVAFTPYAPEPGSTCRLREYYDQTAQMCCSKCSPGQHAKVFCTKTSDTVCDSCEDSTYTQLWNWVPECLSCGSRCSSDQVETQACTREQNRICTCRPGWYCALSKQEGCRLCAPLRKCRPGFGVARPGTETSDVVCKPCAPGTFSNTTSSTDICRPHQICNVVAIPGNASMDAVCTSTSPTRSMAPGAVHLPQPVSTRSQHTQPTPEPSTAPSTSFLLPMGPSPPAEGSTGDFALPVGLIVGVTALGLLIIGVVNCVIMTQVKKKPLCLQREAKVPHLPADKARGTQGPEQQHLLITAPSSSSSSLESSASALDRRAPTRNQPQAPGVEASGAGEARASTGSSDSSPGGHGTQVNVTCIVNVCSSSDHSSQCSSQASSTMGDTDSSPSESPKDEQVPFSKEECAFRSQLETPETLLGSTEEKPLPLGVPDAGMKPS

[2] = molecular target: T1, human TNFR2 on the cell surface …; experiment: flow cytometry, blocking of TNFα-biotin on CHO-TNFR2 cells; AUC for 002# / AUC for antibody x 100
Description: (§1) CHO cells that stably overexpressed human TNFR2 were used for experiments. The cells were resuscitated and passaged until in good state, and the expression level of human TNFR2 on the cells was assessed by FACS. Compared to the isotype control, the assay could be carried out when the fold change of mean fluorescence intensity (MFI) was more than 100 times.
(§2) CHO-TNFR2 cells were digested, washed twice with DPBS and stained with Live/Dead (L/D) at room temperature for 20 min, and then seeded at 1×10⁵ cells/50 μl/well. […] The diluted antibodies were added 50 μl/well into wells pre-seeded with cells, and gently blown and mixed to make the final concentrations of the antibodies to 20, 6.67, 2.22, 0.74, 0.247, 0.08, 0.027 and 0 nM, respectively followed by incubation at 4° C. for 30 min. […] After washing twice with the staining buffer, 100 μl/well of PE-streptavidin was added and incubated at 4° C. for 30 min. After additional washing with the staining buffer twice, 150 μl resuspended cells was analyzed using an flow cytometry. Taking the logarithmic value of the antibody concentrations as abscissa and the corresponding MFI value as ordinate, the inhibition curve of the antibody was drawn, and the IC50 value was calculated by four parameters fitting.

[3] = molecular target: T2, human TNFR2 (Novoprotein, Catalog No. C830) (human, UniProt P20333 23-257, limits assumed); experiment: blocking ELISA, TNFα-biotin on coated human TNFR2, antibody 20 nM
T2 construct: construct not described; also called TNFR2 protein
T2 sequence (looked up): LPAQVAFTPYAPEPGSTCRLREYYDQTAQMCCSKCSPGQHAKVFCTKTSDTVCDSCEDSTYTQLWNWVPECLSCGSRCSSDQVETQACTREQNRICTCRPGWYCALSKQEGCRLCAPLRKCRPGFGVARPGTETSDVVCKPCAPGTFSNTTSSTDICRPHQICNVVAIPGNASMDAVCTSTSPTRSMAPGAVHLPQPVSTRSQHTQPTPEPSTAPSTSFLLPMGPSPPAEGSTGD
Description: (§3) A microplate was pre-coated with 100 μl/well of 1 μg/ml human TNFR2 (Novoprotein, Catalog No. C830). […] After washing the plate, a Streptavidin-HRP working solution (1:10000 dilution) was added at 100 μl/well, and incubated with shaking at room temperature for 40 min. The plate was washed again, the HRP substrate TMB was added for color development, the termination solution was added to terminate the reaction, and the microplate reader was used to read the absorption value.

[4] = molecular target: T1, human TNFR2 on the cell surface …; experiment: cell-based or functional assay
[5] = molecular target: T3, Human TNFR2 recombinant protein (Sino 10417-H08H) (human, UniProt P20333 23-257); experiment: SPR Biacore, antibody on Protein A chip, TNFR2 analyte
T3 construct: also called hTNFR2 (His tag)
T3 sequence (looked up): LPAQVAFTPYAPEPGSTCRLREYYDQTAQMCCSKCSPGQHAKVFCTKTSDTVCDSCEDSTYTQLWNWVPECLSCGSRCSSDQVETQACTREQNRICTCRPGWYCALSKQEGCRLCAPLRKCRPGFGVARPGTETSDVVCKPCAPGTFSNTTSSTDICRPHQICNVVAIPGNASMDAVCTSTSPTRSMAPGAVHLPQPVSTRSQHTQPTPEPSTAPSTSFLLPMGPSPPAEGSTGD
Description: (§4) In this experiment, Protein A chip was used, and the time required for the chip to capture the diluted antibody was determined by manual run, so that the Rmax of the saturated binding antigen was 50 RU. Human TNFR2 (Sino 10417-H08H) and cynomolgus TNFR2 (Sino 90102-C08H) were diluted to 32, 16, 8, 4, 2 nM. The affinity of antibody and antigen was measured by multi-cycle kinetics. In each cycle, anti-TNFR2 antibodies were injected prior to the injection of gradient concentrations of TNFR2 protein allowing the occurrence of antibody-antigen association and dissociation. After each cycle, the Protein A chip was regenerated with Glycine pH1.5 (to remove the protein on the chip). BIAcore T200 analysis software was used to calculate the affinity KD of antibody binding to antigen.

[6] = molecular target: T4, cynomolgus TNFR2 (Sino 90102-C08H) (cynomolgus, UniProt A0A2K5VET2 132-366); experiment: as above
T4 construct: also called CynoTNFR2 (His tag)
T4 sequence: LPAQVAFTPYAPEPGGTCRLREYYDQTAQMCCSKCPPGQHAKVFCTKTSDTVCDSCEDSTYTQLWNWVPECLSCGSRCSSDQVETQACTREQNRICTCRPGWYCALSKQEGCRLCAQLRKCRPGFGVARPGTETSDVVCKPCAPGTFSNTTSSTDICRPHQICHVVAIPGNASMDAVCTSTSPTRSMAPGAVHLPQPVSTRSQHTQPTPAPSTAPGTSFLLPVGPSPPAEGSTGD
Description: as §4

[7] = molecular target: T2, human TNFR2 (Novoprotein, Catalog No. …); experiment: blocking ELISA, TNFα-biotin on coated human TNFR2, antibody 2 nM
Description: as §3

[8] = molecular target: T1, human TNFR2 on the cell surface …; experiment: flow cytometry, blocking of TNFα-biotin on CHO-TNFR2 cells; against 002#
Description: as §1, §2

[9] = molecular target: T1, human TNFR2 on the cell surface …; experiment: cell-based or functional assay; remark: listed apart in the source

| Binder | Antibody AUC [1] | AUC % [2] | ELISA OD of antibodies to be tested (20 nM) [3] | % AUC versus positive control (#52), ADCC against Treg [4] | Kd [5] | koff [5] | kon [5] | Kd [6] | koff [6] | kon [6] | ELISA OD of antibodies to be tested (2 nM) [7] | IC50 Relative Value % [8] | proliferation inhibition (TNFα-induced Treg cell proliferation, against anti-Hel) [9] |
| --- | --- | --- | --- | --- | --- | --- | --- | --- | --- | --- | --- | --- | --- |
| B1 | 27800 | 92.4% | 0.34 OD | 56% | 1.44 nM | 0.000748 s⁻¹ | 519000 M⁻¹ s⁻¹ | 2.48 nM | 0.00212 s⁻¹ | 854000 M⁻¹ s⁻¹ | 2.14 OD | 70.7% |  |
| B2 | 37000 | 121% | 0.161 OD | 69.6% | 0.0681 nM | 5.57e-05 s⁻¹ | 817000 M⁻¹ s⁻¹ | 0.151 nM | 0.000155 s⁻¹ | 1.02e+06 M⁻¹ s⁻¹ | 0.599 OD | 165% | 5.2% |
| B3 | 34300 | 88.3% | 0.198 OD | 80.8% | 0.161 nM | 8.95e-05 s⁻¹ | 556000 M⁻¹ s⁻¹ | 0.279 nM | 0.000185 s⁻¹ | 662000 M⁻¹ s⁻¹ | 0.805 OD | 65.6% | 17.1% |
| B4 | 40000 | 100% | 0.123 OD | 48.1% | 0.101 nM | 2.36e-05 s⁻¹ | 233000 M⁻¹ s⁻¹ | 0.273 nM | 0.000116 s⁻¹ | 425000 M⁻¹ s⁻¹ | 1.44 OD | 132% |  |
| B5 | 10700 | 116% | 0.474 OD | 61.4% | 1.41 nM | 0.00225 s⁻¹ | 1.59e+06 M⁻¹ s⁻¹ | 0.943 nM | 0.00243 s⁻¹ | 2.57e+06 M⁻¹ s⁻¹ | 1.78 OD | 171% |  |
| B6 | 14900 | 107% | 0.282 OD | 59.3% | 0.14 nM | 0.000237 s⁻¹ | 1.7e+06 M⁻¹ s⁻¹ | 0.0977 nM | 0.000276 s⁻¹ | 2.83e+06 M⁻¹ s⁻¹ | 1.14 OD | 270% |  |
